Experimental data as given in the supplement of paper PMC9732359.
± gives the uncertainty stated by the source.

Test: protein stability index of a GFP-peptide fusion (yeast GPS) (PSI 1-4); higher = more stable; sorted into four equal gates, so the index is relative within each strain
In short: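 Tiled 17-residue yeast protein peptides were fused downstream of GFP in a plasmid that also expresses Cherry, and the pooled library was carried in yeast. Mid-log cultures in leucine-free medium were sorted into four equal gates by GFP/Cherry fluorescence ratio, and plasmids from each gate were PCR-amplified and Illumina-sequenced, with reads assigned to strains by barcodes. The protein stability index for each peptide was each gate's read frequency times its gate number, summed.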

Sequence	protein stability index (doa10∆)	protein stability index (pdr5∆)	protein stability index (san1∆)	protein stability index (ubr1∆)
LELTTGATYRGKLVESE [SMD3]	3.29 ± 0.079	3.26 ± 0.084	2.94 ± 0.11	3.38 ± 0.057
LSEATESDLYKLKECPF [RPB2]	3.12 ± 0.11	2.91 ± 0.19	3.23 ± 0.1	2.91 ± 0.1
QQQLVNQMKVAPIPKQL [GAL11]	2.94 ± 0.046	2.96 ± 0.041	2.974 ± 0.026	2.63 ± 0.038
MAAEKILTPESQLKKSK [RPL7A]	3.07 ± 0.11	3.28 ± 0.28	3.25 ± 0.2	
IQMNNSLQNNLQNNINN [SNF11]	3.35 ± 0.093	3.32 ± 0.088	3.06 ± 0.087	3.31 ± 0.064
AVIAAIMQEAGLRAVRK [RPT3]		1.15 ± 0.19		
PKNSSSPVQIAFNRFMA [SSN8]	1.51 ± 0.053	1.74 ± 0.05	1.52 ± 0.1	1.57 ± 0.054
YGYWFDCRMGNFYIQYD [AAR2]	2.51 ± 0.048	2.08 ± 0.048	1.93 ± 0.081	2.49 ± 0.034
SLYTNTSRKALEEVSLK [RPL3]		2.38 ± 0.13	2.33 ± 0.14	1.83 ± 0.19
AYAQVEIQPRANIQLDF [FAS2]	3.17 ± 0.061	3.06 ± 0.066	3.08 ± 0.057	3.16 ± 0.049
LARDTPSANNSSSIKST [RRP4]	2.86 ± 0.076	2.91 ± 0.057	2.97 ± 0.047	3.14 ± 0.054
TYLTQEILILINDPTNK [SIN4]	1.31 ± 0.06	1.55 ± 0.051	1.36 ± 0.091	1.26 ± 0.05
NVKEITEKLKISPESVF [SMC3]	1.7 ± 0.086	2.18 ± 0.069	2.32 ± 0.13	2.04 ± 0.052
RKVVFPFQLDVADMLTP [UBP6]	2.29 ± 0.11	2.02 ± 0.12	2.57 ± 0.078	2.05 ± 0.096
SNGIFYGPSFTKRESLN [SIR2]	2.85 ± 0.065	2.83 ± 0.045	2.65 ± 0.056	3.07 ± 0.039
QELELPGEFVTAIAHSI [SNF5]	2.36 ± 0.049	2.37 ± 0.038	2.38 ± 0.038	2.4 ± 0.043
TGGGLFGSKPTGATSLF [YGL172W/NUP49]	3.45 ± 0.11	3.57 ± 0.1	3.56 ± 0.045	3.62 ± 0.074
HTATDIYQTLIALNLDT [SNF2]	2.11 ± 0.032	2.36 ± 0.034	1.88 ± 0.046	1.93 ± 0.024
NENSNCLLSIPKSTKGK [YML103C/NUP188]	2.04 ± 0.05	1.99 ± 0.044	2.61 ± 0.05	2.35 ± 0.043
CSNPTCGAGVFLANHKD [RPS31]	3.06 ± 0.12	2.82 ± 0.21	2.57 ± 0.24	2.73 ± 0.14
ATRHVLMRQGVLGIKVK [RPS3]	2.07 ± 0.096	2.27 ± 0.073	1.93 ± 0.095	2.07 ± 0.056
IPIAIVLKACGILSDLE [RET1]	1.4 ± 0.057	1.43 ± 0.061	1.36 ± 0.096	2.02 ± 0.053
MAKRTKKVGITGKYGVR [RPL43A]	3.36 ± 0.11	3.34 ± 0.094	3.09 ± 0.1	3.55 ± 0.082
EDVDDEELDITPLFPID [IRR1]	2.99 ± 0.19	3.36 ± 0.15	3 ± 0.1	2.95 ± 0.075
SLSDELNLDEIVACELI [YJL039C/NUP192]	2.75 ± 0.13	2.53 ± 0.1		2.61 ± 0.14
NVSSNIVKNAEQHNLVK [RPS20]	2.81 ± 0.066	3.17 ± 0.057	3.26 ± 0.046	3.07 ± 0.061

Sequence	protein stability index (doa10∆)	protein stability index (pdr5∆)	protein stability index (san1∆)	protein stability index (ubr1∆)
PSMMAPLRDNGLLDESP [YML031W/NDC1]		2.79 ± 0.29		3.35 ± 0.11
LQPVIPGGAASKSVPTP [SNF5]	2.93 ± 0.13	3.28 ± 0.062	3.12 ± 0.049	3.13 ± 0.053
SIQDTSTVAKNVSFVLP [YCG1]	3.21 ± 0.11	2.92 ± 0.074	3.29 ± 0.08	3.04 ± 0.054
VSNNEANTPSIPTNPVD [SWI3]	3.14 ± 0.074	3.2 ± 0.09	2.97 ± 0.082	3.08 ± 0.065
TDLNQDSAAIIAATGLN [GRR1]	1.62 ± 0.17	1.32 ± 0.1	1.43 ± 0.22	1.55 ± 0.097
KKKQQGAKQTQGGAMNK [SRP72]	2.07 ± 0.12	2.54 ± 0.1	3.37 ± 0.082	3.58 ± 0.062
YYYNTKIYKLENGERKL [YMR129W/POM152]	3.03 ± 0.05	3.26 ± 0.069	3.1 ± 0.069	3.18 ± 0.04
LINLAKTRVGSVTAQVY [RPC82]	2.41 ± 0.096	1.66 ± 0.065	1.16 ± 0.18	1.45 ± 0.11
FQLPTTCVSMAPIQLKI [RGR1]	1.3 ± 0.051	1.76 ± 0.055	1.78 ± 0.06	1.67 ± 0.039
SDEEEVTEMSNNANVLG [BRR2]	3.03 ± 0.065	3.1 ± 0.049	2.83 ± 0.063	3.17 ± 0.046
LADYIVEVLLVNYNSDM [NUT1]	1.28 ± 0.047	1.35 ± 0.037	1.39 ± 0.14	1.2 ± 0.039
DGAGGDNEVQRTMLELI [RPT1]	3.6 ± 0.16	2.95 ± 0.13	3.44 ± 0.11	3.36 ± 0.066
VTWRTFTGDFLRRVEER [FAS1]	2.79 ± 0.12	1.78 ± 0.096	1.96 ± 0.12	1.24 ± 0.15
ILEDFRVIKDFKKLNSK [YMR153W/NUP53]	3.15 ± 0.11	3.32 ± 0.12	3.58 ± 0.055	3.29 ± 0.063
DEVITEGQADIDMESDV [POP7]	3.18 ± 0.068	3.17 ± 0.058	3.33 ± 0.057	3.22 ± 0.048
KLKEMQKVLNAHRQRAM [SMC4]	1.84 ± 0.099	2.14 ± 0.12	1.9 ± 0.12	1.57 ± 0.055
TDDYFEELRDLYQTYHV [FAS1]	3.09 ± 0.22	2.69 ± 0.076	3.33 ± 0.15	3.37 ± 0.11
MARGPKKHLKRLAAPHH [RPS4A]	2.9 ± 0.13	3 ± 0.087	3.1 ± 0.069	3.05 ± 0.054
PLVGKPKTELTKGDSTP [YAR002W/NUP60]	2.59 ± 0.061	2.9 ± 0.058	2.46 ± 0.086	2.83 ± 0.11
CVYSGLIPDGRHLVNRG [PRE10]		1.82 ± 0.22	2.1 ± 0.14	
GVIALGQFVTLGCTLVT [RMP1]	2.65 ± 0.24	1.36 ± 0.15	1.18 ± 0.15	1.5 ± 0.12
DALVKRFKNSVKWYHFD [PRE7]	3.19 ± 0.13	3.37 ± 0.12	3.18 ± 0.072	3.08 ± 0.07
RSSSASNEFVPNTSDNN [SWI1]	2.72 ± 0.068	2.77 ± 0.09	2.69 ± 0.059	2.9 ± 0.063
TKEYLVQNLRSWETKLK [CSN9]	2.96 ± 0.099	3.33 ± 0.21	3.1 ± 0.092	2.93 ± 0.13
KNRRRIHGELKTYKEGI [SMC1]	3.23 ± 0.13	3.35 ± 0.062	3.17 ± 0.095	3.18 ± 0.054
